Data reported in US20230192878A1, “METHODS, THERAPIES AND USES FOR TREATING CANCER” (PFIZER INC., priority 2020, published 2023).

Experiments:
Molp8-luc = assay: BCMAxCD3 bispecific mediated cell killing with human T cells, with or without GSI; type: cell-based; settings: 60 hours, with or without 1 μM GSI
Protocol: (§1) CD3^+ T cells from PBMCs (Stem Cell Technologies) were negatively selected using EasySep Human T cell enrichment kit (Stem Cell Technologies). Multiple myeloma cells expressing luciferase (MM.1S-luc, OPM2-luc, H929-luc, Molp8-luc, RPM18226-luc) were treated with 1 μM GSI […]. After 24 hours, cells were seeded with 50,000 CD3^+ pan T cells in a clear 96-well V-bottom plate. Cells were further treated with a range of BCMAxCD3 bispecific antibody concentrations with or without 1 μM GSI. 60 hours after treatment, luciferase activity in treated cells was analyzed using NeoLite reagent kit (Perkin Elmer) and acquired on VictorX multimode plate reader (Perkin Elmer). Cell viability was calculated by dividing luciferase activity of treated cells over luciferase activity of untreated control (no BCMAxCD3 bispecific antibody added).

H929-luc = assay: as above; type: cell-based; settings: 60 hours, with or without 1 μM GSI
Protocol: as §1

Raji-luc = assay: BCMAxCD3 bispecific mediated cell killing of lymphoma cells with human T cells, with or without GSI; type: cell-based; settings: 60 hours, with or without 1 μM GSI, ± SD
Protocol: CD3^+ T cells from PBMCs (Stem Cell Technologies) were negatively selected using EasySep Human T cell enrichment kit (Stem Cell Technologies). 10,000 target lymphoma cells expressing luciferase (Raji-luc) were treated with 1 μM GSI. After 24 hours, cells were seeded with 50,000 CD3^+ pan T cells in a clear 96-well V-bottom plate. Cells were further treated with a range of BCMAxCD3 bispecific concentrations with or without 1 μM GSI. 60 hours after treatment, luciferase activity in treated cells was analyzed using NeoLite reagent kit (Perkin Elmer) and acquired on VictorX multimode plate reader (Perkin Elmer). Cell viability was calculated by dividing luciferase activity of treated cells over luciferase activity of untreated control (no BCMAxCD3 bispecific antibody added).

[1] = test system: advanced multiple myeloma; assay: First in human Phase 1 clinical study: patient response per IMWG; type: in vivo
Source text: This Example illustrates an ongoing Phase 1 open-label, multicenter clinical study of PF-06863135 (BCMAxCD3 bispecific) as monotherapy and in combination with sasanlimab, lenalidomide or pomalidomide, in adult patients with advanced multiple myeloma who have relapsed from or are refractory to standard therapy. The study has been registered on ClinicalTrials.gov with identifier NCT03269136 and was first posted August 2017. Study results for Part 1 of the trial and additional arms for the study are described in this Example.
Part 1 of the Study is the […] single agent dose escalation arm at the dose levels of 0.1, 0.3, 1, 3, 10, 30, and 50 μg/kg Q1W by intravenous (IV) administration, and at the dose levels of 80, 130, 215, 360, 600 and 1000 μg/kg Q1W by subcutaneous (SC) administration. Upon reaching maximum tolerated dose (MTD)/maximum administered dose (MAD), patients can be treated at a dose level selected from the foregoing dose levels described in this paragraph, and below the MTD/MAD fora Q2W administration, both IV and SC, to further support the recommended phase 2 dose (RP2D) decision. For the study, dose limiting toxicity observation period is set at 21 days for Q1W dosing and 28 days for Q2W dosing. The treatment cycle, aka cycle, for Q1W dosing would be 3 weeks, and for Q2W dosing would be four weeks.
Clinical Outcome of Part 1 of the Study. As of 15 Apr. 2020, a total of 23 patients were enrolled in Part 1 of the study and had been treated with PF-06863135 administered intravenously (IV) at 0.1 (N=2), 0.3 (N=3), 1 (N=2), 3 (N=3), 10 (N=2), 30 (N=5), and 50 (N=6) μg/kg. As of Aug. 21, 2020, a total of 30 patients were enrolled in Part 1 of the study and had been treated with PF-06863135 administered subcutaneously (SC) at 80 (N=6), 130 (N=4), 215 (N=4), 360 (N=4), 600 (N=6) and 1000 (N=6) μg/kg. Safety and efficacy data were available for in 23 IV and 30 SC treated patients per IMWG (International Myeloma Working Group) criteria.
Part 1.1 of the Study is an alternative maintenance dose escalation arm for single agent PF-06863135. If excessive toxicity occurs or the maximum tolerated dose (MTD)/maximum administered dose (MAD) is reached at a dose level that is earlier than desired in Part 1 of the study described above, a priming dose will be administered one week prior to the day 1 cycle 1 administration of the dose (maintenance dose) at this dose level and for all subsequent dose levels in the dose escalation that may be initiated for Part 1.1. The priming dosing will be at a lower dose level than the maintenance dose.

[2] = 600 μg/kg priming, 1000 μg/kg Q1W SC, N = 7
[3] = 600 μg/kg priming, 1000 μg/kg Q2W SC, N = 13

Substance: PF-06863135: heterodimeric humanized full-length bispecific antibody with one BCMA binding arm and one CD3 binding arm
- Molp8 cell viability (% control) (Molp8-luc; BCMA × CD3 0.00001 nM): 64 ± 11.6 % control
- Molp8 cell viability (% control) (Molp8-luc; BCMA × CD3 0.00005 nM): 59.1 ± 4.6 % control
- Molp8 cell viability (% control) (Molp8-luc; BCMA × CD3 0.00026 nM): 58.5 ± 0.6 % control
- Molp8 cell viability (% control) (Molp8-luc; BCMA × CD3 0.00128 nM): 66.7 ± 0.3 % control
- Molp8 cell viability (% control) (Molp8-luc; BCMA × CD3 0.0064 nM): 55.2 ± 1.3 % control
- Molp8 cell viability (% control) (Molp8-luc; BCMA × CD3 0.032 nM): 66.1 ± 4.9 % control
- Molp8 cell viability (% control) (Molp8-luc; BCMA × CD3 0.16 nM): 8 ± 2 % control
- Molp8 cell viability (% control) (Molp8-luc; BCMA × CD3 0.8 nM): 6.1 ± 0.7 % control
- Molp8 cell viability (% control) (Molp8-luc; BCMA × CD3 4 nM): 5.2 ± 0.3 % control
- H929 cell viability (% control) (H929-luc; BCMA × CD3 0.00001 nM): 80.2 ± 0.3 % control
- H929 cell viability (% control) (H929-luc; BCMA × CD3 0.00005 nM): 81.1 ± 0.2 % control
- H929 cell viability (% control) (H929-luc; BCMA × CD3 0.00026 nM): 79 ± 0.8 % control
- H929 cell viability (% control) (H929-luc; BCMA × CD3 0.00128 nM): 77.8 ± 3.3 % control
- H929 cell viability (% control) (H929-luc; BCMA × CD3 0.0064 nM): 81.2 ± 3^ % control
- H929 cell viability (% control) (H929-luc; BCMA × CD3 0.032 nM): 98.6 ± 1.2 % control
- H929 cell viability (% control) (H929-luc; BCMA × CD3 0.16 nM): 23.2 ± 7.2 % control
- H929 cell viability (% control) (H929-luc; BCMA × CD3 0.8 nM): 11.3 ± 1.5 % control
- H929 cell viability (% control) (H929-luc; BCMA × CD3 4 nM): 8.6 ± 3 % control
- Raji Cell Viability (% control) (Raji-luc; BCMAxCD3 0.00064 nM): 94 ± 3.7 % control
- Raji Cell Viability (% control) (Raji-luc; BCMAxCD3 0.0032 nM): 107 ± 4.5 % control
- Raji Cell Viability (% control) (Raji-luc; BCMAxCD3 0.016 nM): 105.8 ± 10.2 % control
- Raji Cell Viability (% control) (Raji-luc; BCMAxCD3 0.08 nM): 89.3 ± 5.7 % control
- Raji Cell Viability (% control) (Raji-luc; BCMAxCD3 0.4 nM): 88.1 ± 18.4 % control
- Raji Cell Viability (% control) (Raji-luc; BCMAxCD3 2 nM): 71 ± 9.7 % control
- Raji Cell Viability (% control) (Raji-luc; BCMAxCD3 10 nM): 82.1 ± 9.7 % control
- Raji Cell Viability (% control) (Raji-luc; BCMAxCD3 50 nM): 80 ± 13.2 % control
- Patients who achieved a complete response ([1]; 50 μg/kg IV): 1 patient
- Patient Response: PR (patients) ([1]; 215 μg/kg SC, N = 4): 1
- Patient Response: SD (patients) ([1]; 215 μg/kg SC, N = 4): 1
- Patient Response: sCR (patients) ([1]; 215 μg/kg SC, N = 4): 2
- Patient Response: PD (patients) ([1]; 360 μg/kg SC, N = 4): 1
- Patient Response: VGPR (patients) ([1]; 360 μg/kg SC, N = 4): 2
- Patient Response: sCR (patients) ([1]; 360 μg/kg SC, N = 4): 1
- Patient Response: PD (patients) ([1]; 600 μg/kg SC, N = 6): 1
- Patient Response: SD (patients) ([1]; 600 μg/kg SC, N = 6): 1
- Patient Response: VGPR (patients) ([1]; 600 μg/kg SC, N = 6): 2
- Patient Response: sCR (patients) ([1]; 600 μg/kg SC, N = 6): 2
- Patient Response: CR (patients) [1, 2]: 2
- Patient Response: PR (patients) [1, 2]: 1
- Patient Response: VGPR (patients) [1, 2]: 1
- Patient Response: PD (patients) [1, 3]: 3
- Patient Response: PR (patients) [1, 3]: 3
- Patient Response: SD (patients) [1, 3]: 1
- Patient Response: VGPR (patients) [1, 3]: 4
- Patient Response: CR (patients) ([1]; 1000 μg/kg SC, N = 6): 1
- Patient Response: PD (patients) ([1]; 1000 μg/kg SC, N = 6): 1
- Patient Response: PR (patients) ([1]; 1000 μg/kg SC, N = 6): 1
- Patient Response: VGPR (patients) ([1]; 1000 μg/kg SC, N = 6): 3
- Subjects who achieved best response of stable disease ([1]; IV cohorts (0.3-50 μg/kg)): Ten
- Patients who achieved a minimal response ([1]; IV cohorts, at 3 μg/kg and 50 μg/kg IV): 2 patients
- Clinical efficacy ([1]; highest dose levels of 600 and 1000 μg/kg SC): clinical efficacy was seen in most patients
